Where a chain is given by its changes, count along the chain named.
B1: Example 1123 (peptide)
chain: YXQGTFTSDXSQXLDKKAQXAFIEXLIEXGPSSGEPPPSGE
modifications: Aib, 4Pal, αMeL, Me4Pal; acylated Lys; C-terminal amide; synthetic construct; SITE 2: note = 2-Aminoisobutyric Acid; SITE 10: note = 3-(4-Pyridyl)-L-alanine; SITE 13: note = alpha-methyl-leucine; SITE 17: note = Lysine is chemically modified through conjugation of the epsilon-amino group of the Lysine side chain with (gamma-Glu)2-CO-(CH2)16-CO2H; SITE 20:
B2: Example 1143 (peptide)
chain: YXQGTXTSDXXIXLDXKAQXEFIEXLIEGGPSSGEPPPTGE
modifications: Non-natural residues; K acylated AEEA-γGlu-C18 diacid; C-terminal amide; synthetic construct; SITE 2: note = 2-Aminoisobutyric Acid; SITE 6: note = alpha-methyl-2-fluoro-L-phenylalanine; SITE 10: note = 3-(4-Pyridyl)-L-alanine; SITE 11: note = alpha-methyl-L-serine; SITE 13: note = alpha-methyl-leucine; SITE 16: note = L-ornithine; SITE 17: note = Lysine is chemically mo
B3: Example 1154 (peptide)
chain: B2 chain with I27V, E35A, T39G
modifications: not fully specified; non-natural residues; AEEA-γGlu-C18 diacid acyl; C-terminal amide; synthetic construct; SITE 2: note = 2-Aminoisobutyric Acid; SITE 6: note = alpha-methyl-2-fluoro-L-phenylalanine …; SITE 10: note = 3-(4-Pyridyl)-L-alanine; SITE 11: note = alpha-methyl-L-serine; SITE 13: note = alpha-methyl-leucine; SITE 16: note = L-ornithine; SITE 17: note = Lysine is chemically mo
B4: Example 1149 (peptide)
chain: B2 chain with T39E
modifications: non-natural residues; AEEA-γGlu-C18 diacid on Lys; C-terminal amide; synthetic construct; SITE 2: note = 2-Aminoisobutyric Acid; SITE 6: note = alpha-methyl-2-fluoro-L-phenylalanine; SITE 10: note = 3-(4-Pyridyl)-L-alanine; SITE 11: note = alpha-methyl-L-serine; SITE 13: note = alpha-methyl-leucine; SITE 16: note = L-ornithine; SITE 17: note = Lysine is chemically mo
B5: Example 1145 (peptide)
chain: B2 chain with T39G
modifications: non-natural residues; lipidated Lys AEEA-γGlu-C18 diacid; C-term amide; synthetic construct; SITE 2: note = 2-Aminoisobutyric Acid; SITE 6: note = alpha-methyl-2-fluoro-L-phenylalanine; SITE 10: note = 3-(4-Pyridyl)-L-alanine; SITE 11: note = alpha-methyl-L-serine; SITE 13: note = alpha-methyl-leucine; SITE 16: note = L-ornithine; SITE 17: note = Lysine is chemically mo
B6: Example 1147 (peptide)
chain: B2 chain with T39E, G40S
modifications: non-natural residues; K acylated AEEA-γGlu-C18 diacid; C-amide; synthetic construct; SITE 2: note = 2-Aminoisobutyric Acid; SITE 6: note = alpha-methyl-2-fluoro-L-phenylalanine; SITE 10: note = 3-(4-Pyridyl)-L-alanine; SITE 11: note = alpha-methyl-L-serine; SITE 13: note = alpha-methyl-leucine; SITE 16: note = L-ornithine; SITE 17: note = Lysine is chemically mo
B7: Example 1151 (peptide)
chain: B2 chain with T39S
modifications: not fully specified; non-natural residues; acylated Lys; C-terminal amide; synthetic construct; SITE 2: note = 2-Aminoisobutyric Acid; SITE 6: note = alpha-methyl-2-fluoro-L-phenylalanine; SITE 10: note = 3-(4-Pyridyl)-L-alanine; SITE 11: note = alpha-methyl-L-serine; SITE 13: note = alpha-methyl-leucine; SITE 16: note = L-ornithine; SITE 17: note = Lysine is chemically mo
B8: Example 1155 (peptide)
chain: B2 chain with I27V, T39G
modifications: not fully specified; Lys acylated AEEA-γGlu-C18 diacid; non-natural residues; C-amide; synthetic construct; SITE 2: note = 2-Aminoisobutyric Acid; SITE 6: note = alpha-methyl-2-fluoro-L-phenylalanine; SITE 10: note = 3-(4-Pyridyl)-L-alanine; SITE 11: note = alpha-methyl-L-serine; SITE 13: note = alpha-methyl-leucine; SITE 16: note = L-ornithine; SITE 17: note = Lysine is chemically mo
B9: Example 1153 (peptide)
chain: B2 chain with I27V
modifications: not fully specified; Aib, αMeF(2F), 4Pal, αMeS, Orn, Me4Pal, αMeY; acylated; amide; synthetic construct; SITE 2: note = 2-Aminoisobutyric Acid; SITE 6: note = alpha-methyl-2-fluoro-L-phenylalanine; SITE 10: note = 3-(4-Pyridyl)-L-alanine; SITE 11: note = alpha-methyl-L-serine; SITE 13: note = alpha-methyl-leucine; SITE 16: note = L-ornithine; SITE 17: note = Lysine is chemically mo
B10: Example 1152 (peptide)
chain: B2 chain with I27V, E35A
modifications: not fully specified; acylated lysine AEEA-γGlu-C18 diacid; non-natural residues; C-terminal amide; synthetic construct; SITE 2: note = 2-Aminoisobutyric Acid; SITE 6: note = alpha-methyl-2-fluoro-L-phenylalanine; SITE 10: note = 3-(4-Pyridyl)-L-alanine; SITE 11: note = alpha-methyl-L-serine; SITE 13: note = alpha-methyl-leucine; SITE 16: note = L-ornithine; SITE 17: note = Lysine is chemically mo
B11: Example 1128 (peptide)
chain: YXQGTFTSDXSQXLDXKAQXQFIQXLIAXGPSSGEPPPSGGGE
modifications: Aib, 4Pal, αMeL, Orn, Me4Pal, αMeY; acylated lysine; amide; synthetic construct; SITE 2: note = 2-Aminoisobutyric Acid; SITE 10: note = 3-(4-Pyridyl)-L-alanine; SITE 13: note = alpha-methyl-leucine; SITE 16: note = L-ornithine; SITE 17: note = Lysine is chemically modified through conjugation of the epsilon-amino group of the Lysine side chain with D-Glutami
B12: Example 1137 (peptide)
chain: B11 chain with S11X, A28E, E35A
modifications: not fully specified; non-natural residues; γ-Glu-C18 diacid acyl; C-terminal amide; synthetic construct; SITE 2: note = 2-Aminoisobutyric Acid; SITE 10: note = 3-(4-Pyridyl)-L-alanine; SITE 11: note = alpha-methyl-L-serine; SITE 13: note = alpha-methyl-leucine; SITE 16: note = L-ornithine; SITE 17: note = Lysine is chemically modified through conjugation of the epsilon-amino group
B13: Example 1133 (peptide)
chain: B11 chain with S11X, X29G
modifications: not fully specified; non-natural residues; C18 diacid-γGlu-e on Lys; C-terminal amide; synthetic construct; SITE 2: note = 2-Aminoisobutyric Acid; SITE 10: note = 3-(4-Pyridyl)-L-alanine; SITE 11: note = alpha-methyl-L-serine; SITE 13: note = alpha-methyl-leucine; SITE 16: note = L-ornithine; SITE 17: note = Lysine is chemically modified through conjugation of the epsilon-amino group
B14: Example 1124 (peptide)
chain: YXQGTFTSDXSQXLDKKAQXAFIEXLIEXGPSSGEPPPSGEEE
modifications: non-natural residues (Aib, 4Pal, Me4Pal, αMeL); lipidated Lys; C-amide; synthetic construct; SITE 2: note = 2-Aminoisobutyric Acid; SITE 10: note = 3-(4-Pyridyl)-L-alanine; SITE 13: note = alpha-methyl-leucine; SITE 17: note = Lysine is chemically modified through conjugation of the epsilon-amino group of the Lysine side chain with (gamma-Glu)2-CO-(CH2)16-CO2H; SITE 20:
B15: Example 1130 (peptide)
chain: B11 chain with Q21A
modifications: Lys acylated γGlu-C18 diacid; non-natural residues; C-amide; synthetic construct; SITE 2: note = 2-Aminoisobutyric Acid; SITE 10: note = 3-(4-Pyridyl)-L-alanine; SITE 13: note = alpha-methyl-leucine; SITE 16: note = L-ornithine; SITE 17: note = Lysine is chemically modified through conjugation of the epsilon-amino group of the Lysine side chain with D-Glutami
B16: Example 1131 (peptide)
chain: B11 chain with Q21A, A28E
modifications: not fully specified; non-natural residues, C18 diacid acylation, C-terminal amide; synthetic construct; SITE 2: note = 2-Aminoisobutyric Acid; SITE 10: note = 3-(4-Pyridyl)-L-alanine; SITE 13: note = alpha-methyl-leucine; SITE 16: note = L-ornithine; SITE 17: note = Lysine is chemically modified through conjugation of the epsilon-amino group of the Lysine side chain with D-Glutami
B17: Example 1125 (peptide)
chain: B14 chain with E41S
modifications: Aib, 4Pal, Me4Pal, αMeL; lipidated Lys; C-terminal amide; synthetic construct; SITE 2: note = 2-Aminoisobutyric Acid; SITE 10: note = 3-(4-Pyridyl)-L-alanine; SITE 13: note = alpha-methyl-leucine; SITE 17: note = Lysine is chemically modified through conjugation of the epsilon-amino group of the Lysine side chain with (gamma-Glu)2-CO-(CH2)16-CO2H; SITE 20:
B18: Example 1129 (peptide)
chain: B11 chain with A28E
modifications: non-natural residues; lysine acylated with C18 diacid; C-terminal amide; synthetic construct; SITE 2: note = 2-Aminoisobutyric Acid; SITE 10: note = 3-(4-Pyridyl)-L-alanine; SITE 13: note = alpha-methyl-leucine; SITE 16: note = L-ornithine; SITE 17: note = Lysine is chemically modified through conjugation of the epsilon-amino group of the Lysine side chain with D-Glutami

Each binder was assayed against hGLP-1R (Homo sapiens, UniProt P43220) (assay: cell-based or functional assay).
Sequence of hGLP-1R (P43220 24-463): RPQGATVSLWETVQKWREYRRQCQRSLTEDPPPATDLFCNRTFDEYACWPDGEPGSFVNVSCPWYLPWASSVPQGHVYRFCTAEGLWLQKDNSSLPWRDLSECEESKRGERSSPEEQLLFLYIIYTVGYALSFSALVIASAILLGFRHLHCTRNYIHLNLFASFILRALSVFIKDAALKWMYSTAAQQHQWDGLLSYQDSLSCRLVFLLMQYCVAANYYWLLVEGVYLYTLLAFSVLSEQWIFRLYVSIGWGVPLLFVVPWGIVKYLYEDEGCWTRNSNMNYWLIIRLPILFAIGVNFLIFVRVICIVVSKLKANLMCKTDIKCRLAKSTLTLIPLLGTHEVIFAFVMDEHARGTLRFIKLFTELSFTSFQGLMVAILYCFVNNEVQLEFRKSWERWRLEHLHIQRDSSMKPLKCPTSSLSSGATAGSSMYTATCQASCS

Binder	Relative cAMP EC50	cAMP Rel EC50 (1% HSA)	cAMP Rel EC50 (in the presence of 1% HSA)
B1	4.47 nM	191 nM	
B2	0.381 nM	49.6 nM	
B3	0.344 nM		44.5 nM
B4	0.352 nM	52.2 nM	
B5	0.313 nM	39.1 nM	
B6	0.347 nM	45.4 nM	
B7	0.262 nM	40 nM	
B8	0.434 nM		44.4 nM
B9	0.33 nM		52.7 nM
B10	0.371 nM		43.8 nM
B11	0.486 nM	52.8 nM	
B12	0.582 nM	36.2 nM	
B13	0.768 nM	47.8 nM	
B14	10.1 nM	304 nM	
B15	0.641 nM	44.5 nM	
B16	0.483 nM	63.7 nM	
B17	8.26 nM	243 nM	
B18	0.501 nM	56.6 nM	

The binders below were run against T1, human GIP receptor (human) (UniProt P48546) (assay: cell-based or functional assay).
T1 sequence (looked up): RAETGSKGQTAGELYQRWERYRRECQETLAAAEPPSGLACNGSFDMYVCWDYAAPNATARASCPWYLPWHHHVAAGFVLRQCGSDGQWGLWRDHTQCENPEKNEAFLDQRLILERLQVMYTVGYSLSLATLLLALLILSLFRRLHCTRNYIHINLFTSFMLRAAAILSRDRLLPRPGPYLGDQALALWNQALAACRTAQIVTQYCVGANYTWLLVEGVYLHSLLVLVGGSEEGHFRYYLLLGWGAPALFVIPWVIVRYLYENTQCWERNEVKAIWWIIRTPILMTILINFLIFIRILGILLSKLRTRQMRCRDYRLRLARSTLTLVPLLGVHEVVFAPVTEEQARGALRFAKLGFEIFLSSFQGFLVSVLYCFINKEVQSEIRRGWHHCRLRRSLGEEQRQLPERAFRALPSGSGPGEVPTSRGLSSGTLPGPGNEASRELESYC

Binder	Relative cAMP EC50	cAMP Rel EC50 (1% HSA)	cAMP Rel EC50 (in the presence of 1% HSA)
B1	0.101 nM	3.89 nM	
B2	0.0087 nM	0.751 nM	
B3	0.00879 nM		0.954 nM
B4	0.00804 nM	0.96 nM	
B5	0.00689 nM	0.848 nM	
B6	0.00753 nM	0.831 nM	
B7	0.00339 nM	0.287 nM	
B8	0.00917 nM		0.888 nM
B9	0.0109 nM		1.39 nM
B10	0.0101 nM		1.21 nM
B11	0.0378 nM	3.18 nM	
B12	0.0334 nM	2.05 nM	
B13	0.0719 nM	4.24 nM	
B14	0.187 nM	12 nM	
B15	0.0441 nM	3.73 nM	
B16	0.0472 nM	5.47 nM	
B17	0.173 nM	3.95 nM	
B18	0.048 nM	4.16 nM	

These binders were tested against human glucagon receptor (human) (UniProt P47871) (assay: cell-based or functional assay).
Sequence of human glucagon receptor (human) (P47871 26-477): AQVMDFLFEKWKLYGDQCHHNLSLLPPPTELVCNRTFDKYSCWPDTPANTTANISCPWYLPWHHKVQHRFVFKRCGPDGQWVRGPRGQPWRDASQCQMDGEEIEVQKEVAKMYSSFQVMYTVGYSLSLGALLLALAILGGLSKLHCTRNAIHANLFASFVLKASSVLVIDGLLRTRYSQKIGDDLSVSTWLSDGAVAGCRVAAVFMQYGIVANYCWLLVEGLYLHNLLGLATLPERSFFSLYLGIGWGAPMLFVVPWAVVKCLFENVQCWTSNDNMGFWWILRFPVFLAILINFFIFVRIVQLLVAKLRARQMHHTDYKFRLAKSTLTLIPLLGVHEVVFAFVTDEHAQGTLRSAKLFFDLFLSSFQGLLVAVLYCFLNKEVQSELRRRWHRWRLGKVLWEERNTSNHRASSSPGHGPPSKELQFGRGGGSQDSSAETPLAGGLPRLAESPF

Binder	Relative cAMP EC50	cAMP Rel EC50 (1% HSA)	cAMP Rel EC50 (in the presence of 1% HSA)
B1	5.53 nM	441 nM	
B2	1.42 nM	182 nM	
B3	6.42 nM		320 nM
B4	1.37 nM	184 nM	
B5	1.07 nM	148 nM	
B6	1.17 nM	167 nM	
B7	1.31 nM	206 nM	
B8	1.83 nM		288 nM
B9	2.69 nM		215 nM
B10	2.32 nM		287 nM
B11	9.88 nM	869 nM	
B12	14.2 nM	663 nM	
B13	2.95 nM	216 nM	
B14	6.97 nM	400 nM	
B15	13.3 nM	1240 nM	
B16	8.42 nM	1140 nM	
B17	5.83 nM	264 nM	
B18	6.11 nM	796 nM	

Reference: patent US20240270821A1, “GIP/GLP1/GCG TRI-RECEPTOR AGONISTS AND USES THEREOF” (priority 2023, published 2024)
